{"source": "paper PMC2850911", "key": {"[1]": {"target": "Entamoeba histolytica Phosphoserine aminotransferase (Entamoeba histolytica)", "assay": "SEC; Superdex 200 10/300 GL column, EhPSAT at pH 6, 7, 8 and 9; calibrated with ferritin, aldolase, conalbumin and ovalbumin; also run with 200 mM NaCl or NaF"}, "[2]": {"target": "Entamoeba histolytica Phosphoserine aminotransferase (Entamoeba histolytica)", "assay": "cross-linking; glutaraldehyde cross-linking of EhPSAT incubated at pH 9, 8, 7 and 6, analysed on 10% SDS-PAGE"}}, "data": [{"substance": "Entamoeba histolytica Phosphoserine aminotransferase (enzyme)", "values": [{"measurement": "stoichiometry N", "setting": "[1]", "result": 2}, {"measurement": "stoichiometry N", "setting": "[2]", "result": 2}]}]}
